“Also recorded” adds a separate entry of the source.
Columns and labels:
[1] = test system: MPB (myelin basic protein); experiment: In vitro kinase activity of protein kinase N beta derivatives, MPB/MBP phosphorylation; type: biochemical; set-up: key to Activity: +: active; −: inactive; !: no “hyper activation” was observed as one might have expected from comparable mutations in other kinases (Morgan and Debond, 1994); conditions: for phosphorylation of MBP, 32P incorporation: immune precipitates, gamma 32P-ATP, autoradiography, FIG. 11B
Protocol: The respective fragments were transiently epressed in HeLa cells. Their relative expression was determined by Western-blot analysis of Hela cell extracts using an anti-PKNbeta antibody.
MPB is myelin basic protein which is a standard in vitro phosphorylation substrate.
As may be taken from FIG. 9A apart from the full-length protein kinase N beta only the kinase domain in its otherwise wildtype form is active in phosphorylating MPB.
The PKNbeta-derived molecules were immune-precipitated from the cell extracts shown in FIG. 10 by using anti-tag antibodies. The immune precipitates were washed as described (Klippel et al., 1996) and divided in two halfs. One half was incubated with 5 μg MBP (UBI) as a phosphorylation substrate, 4 mM MgCl2 and gamma ^32P-ATP in a buffered solution for 10 min at room temperature. In addition, phosphatase inhibitors and inhibitors against unspecifically acting kinases were added as in Klippel et al., 1998. Incorporation of radioactive phosphate was detected by autoradiography after separating the reaction products by 16% SDS-PAGE (FIG. 11B).

GST-GSK3 fusion protein = experiment: Non-radioactive in vitro kinase assay, anti-phospho GSK3alpha Western blot; type: biochemical; conditions: immune precipitates, 200 μM rATP, FIG. 11A
Protocol: The second half of the immune precipitates was incubated with 1 μg GST-GSK3 fusion protein (Cell Signaling Technology) as a phosphorylation substrate in the presence of 200 μM rATP. The reaction mixture was subsequently analyzed by 8-16% gradient SDS-PAGE and Western blotting using the anti-phospho GSK3alpha antibody (Cell Signaling Technology) (FIG. 11A).
The specificity of the in vitro phosphorylation reactions was controlled by analyzing kinase defective variants (e.g. containing mutations in the ATP binding site, see above) in parallel to active protein.
In a first step, the suitability of a non-radioactive screening formate was determined, whereby the various protein kinase N beta derivatives as already discussed in connection with example 10, were used for phosphorylating a suitable substrate. Such substrate may, for example, be MBP or a GSK3 peptide which is typically immobilised on a suitable carrier such as agarose- or sepharose beads or on plastic surfaces. In the present case and as depicted in FIG. 11A, the substrate is a GSK3-derived peptide fused to paramyosin. […] The phosphorylated substrate in the present case was detected by anti-phospho GSK3 alpha antibody (mentioned above).

Row | Molecule | phosphorylation of MBP, 32P incorporation [1] | phosphorylating MPB (FIG. 9A) ([1]; transient overexpression in HeLa cells) | phosphorylation of GSK3-derived substrate (GST-GSK3 fusion protein; listed as full length wildtype protein kinase N beta) | phosphorylation of GSK3-derived substrate (GST-GSK3 fusion protein) | Activity ([1]; transient overexpression in HeLa cells, MPB substrate, FIG. 9)
1 | Full length wt: full length wildtype PKNbeta molecule (889 amino acids) (protein) MEEGAPRQPGPSQWPPEDEKEVIRRAIQKELKIKEGVENLRRVATDRRHLGHVQQLLRSSNRRLEQLHGELRELHARILLPGPGPGPAEPVASGPRPWAEQLRARHLEALRRQLHVELKVKQGAENMTHTCASGTPKERKLLAAAQQMLRDSQLKVALLRMKISSLEASGSPEPGPELLAEELQHRLHVEAAVAEGAKNVVKLLSSRRTQDRKALAEAQAQLQESSQKLDLLRLALEQLLEQLPPAHPLRSRVTRELRAAVPGYPQPSGTPVKPTALTGTLQVRLLGCEQLLTAVPGRSPAAALASSPSEGWLRTKAKHQRGRGELASEVLAVLKVDNRVVGQTGWGQVAEQSWDQTFVIPLERARELEIGVHWRDWRQLCGVAFLRLEDFLDNACHQLSLSLVPQGLLFAQVTFCDPVIERRPRLQRQERIFSKRRGQDFLRRSQMNLGMAAWGRLVMNLLPPCSSPSTISPPKGCPRTPTTLREASDPATPSNFLPKKTPLGEEMTPPPKPPRLYLPQEPTSEETPRTKRPHMEPRTRRGPSPPASPTRKPPRLQDFRCLAVLGRGHFGKVLLVQFKGTGKYYAIKALKKQEVLSRDEIESLYCEKRILEAVGCTGHPFLLSLLVCFQTSSHARFVTEFVPGGDLMMQIHEDVFPEPQARFYVACVVLGLQFLHEKKIIYRDLKLDNLLLDAQGFLKIADFGLCKEGIGFGDRTSTFCGTPEFLAPEVLTQEAYTQAVDWWALGVLLYEMLVGECPFPGDTEEEVFDCIVNMDAPYPGFLSVQGLEFIQKLLQKCPEKRLGAGEQDAEEIKVQPFFRTTNWQALLARTIQPPFVPTLCGPADLRYFEGEFTGLPPALTPPAPHSLLTARQQAAFRDFDFVSERFLEP | show activity | active | suitable to phosphorylate the substrate; also recorded: show activity | – | –
2 | full length KE: full length protein kinase N beta with kinase defective KE mutation at position 588 (protein) MEEGAPRQPGPSQWPPEDEKEVIRRAIQKELKIKEGVENLRRVATDRRHLGHVQQLLRSSNRRLEQLHGELRELHARILLPGPGPGPAEPVASGPRPWAEQLRARHLEALRRQLHVELKVKQGAENMTHTCASGTPKERKLLAAAQQMLRDSQLKVALLRMKISSLEASGSPEPGPELLAEELQHRLHVEAAVAEGAKNVVKLLSSRRTQDRKALAEAQAQLQESSQKLDLLRLALEQLLEQLPPAHPLRSRVTRELRAAVPGYPQPSGTPVKPTALTGTLQVRLLGCEQLLTAVPGRSPAAALASSPSEGWLRTKAKHQRGRGELASEVLAVLKVDNRVVGQTGWGQVAEQSWDQTFVIPLERARELEIGVHWRDWRQLCGVAFLRLEDFLDNACHQLSLSLVPQGLLFAQVTFCDPVIERRPRLQRQERIFSKRRGQDFLRRSQMNLGMAAWGRLVMNLLPPCSSPSTISPPKGCPRTPTTLREASDPATPSNFLPKKTPLGEEMTPPPKPPRLYLPQEPTSEETPRTKRPHMEPRTRRGPSPPASPTRKPPRLQDFRCLAVLGRGHFGKVLLVQFKGTGKYYAIEALKKQEVLSRDEIESLYCEKRILEAVGCTGHPFLLSLLVCFQTSSHARFVTEFVPGGDLMMQIHEDVFPEPQARFYVACVVLGLQFLHEKKIIYRDLKLDNLLLDAQGFLKIADFGLCKEGIGFGDRTSTFCGTPEFLAPEVLTQEAYTQAVDWWALGVLLYEMLVGECPFPGDTEEEVFDCIVNMDAPYPGFLSVQGLEFIQKLLQKCPEKRLGAGEQDAEEIKVQPFFRTTNWQALLARTIQPPFVPTLCGPADLRYFEGEFTGLPPALTPPAPHSLLTARQQAAFRDFDFVSERFLEP | background activity of unspecific kinases | – | – | no | –
3 | full length TA: full length protein kinase N beta with TA mutation at amino acid 718 (protein) MEEGAPRQPGPSQWPPEDEKEVIRRAIQKELKIKEGVENLRRVATDRRHLGHVQQLLRSSNRRLEQLHGELRELHARILLPGPGPGPAEPVASGPRPWAEQLRARHLEALRRQLHVELKVKQGAENMTHTCASGTPKERKLLAAAQQMLRDSQLKVALLRMKISSLEASGSPEPGPELLAEELQHRLHVEAAVAEGAKNVVKLLSSRRTQDRKALAEAQAQLQESSQKLDLLRLALEQLLEQLPPAHPLRSRVTRELRAAVPGYPQPSGTPVKPTALTGTLQVRLLGCEQLLTAVPGRSPAAALASSPSEGWLRTKAKHQRGRGELASEVLAVLKVDNRVVGQTGWGQVAEQSWDQTFVIPLERARELEIGVHWRDWRQLCGVAFLRLEDFLDNACHQLSLSLVPQGLLFAQVTFCDPVIERRPRLQRQERIFSKRRGQDFLRRSQMNLGMAAWGRLVMNLLPPCSSPSTISPPKGCPRTPTTLREASDPATPSNFLPKKTPLGEEMTPPPKPPRLYLPQEPTSEETPRTKRPHMEPRTRRGPSPPASPTRKPPRLQDFRCLAVLGRGHFGKVLLVQFKGTGKYYAIKALKKQEVLSRDEIESLYCEKRILEAVGCTGHPFLLSLLVCFQTSSHARFVTEFVPGGDLMMQIHEDVFPEPQARFYVACVVLGLQFLHEKKIIYRDLKLDNLLLDAQGFLKIADFGLCKEGIGFGDRTSAFCGTPEFLAPEVLTQEAYTQAVDWWALGVLLYEMLVGECPFPGDTEEEVFDCIVNMDAPYPGFLSVQGLEFIQKLLQKCPEKRLGAGEQDAEEIKVQPFFRTTNWQALLARTIQPPFVPTLCGPADLRYFEGEFTGLPPALTPPAPHSLLTARQQAAFRDFDFVSERFLEP | background activity of unspecific kinases | – | – | no | –
4 | ΔN comprising amino acids 288-889: protein kinase N beta derivative comprising amino acids 288-889 (protein, UniProt Q6P5Z2 288-889, looked up, fragment) CEQLLTAVPGRSPAAALASSPSEGWLRTKAKHQRGRGELASEVLAVLKVDNRVVGQTGWGQVAEQSWDQTFVIPLERARELEIGVHWRDWRQLCGVAFLRLEDFLDNACHQLSLSLVPQGLLFAQVTFCDPVIERRPRLQRQERIFSKRRGQDFLRASQMNLGMAAWGRLVMNLLPPCSSPSTISPPKGCPRTPTTLREASDPATPSNFLPKKTPLGEEMTPPPKPPRLYLPQEPTSEETPRTKRPHMEPRTRRGPSPPASPTRKPPRLQDFRCLAVLGRGHFGKVLLVQFKGTGKYYAIKALKKQEVLSRDEIESLYCEKRILEAVGCTGHPFLLSLLACFQTSSHACFVTEFVPGGDLMMQIHEDVFPEPQARFYVACVVLGLQFLHEKKIIYRDLKLDNLLLDAQGFLKIADFGLCKEGIGFGDRTSTFCGTPEFLAPEVLTQEAYTRAVDWWGLGVLLYEMLVGECPFPGDTEEEVFDCIVNMDAPYPGFLSVQGLEFIQKLLQKCPEKRLGAGEQDAEEIKVQPFFRTTNWQALLARTIQPPFVPTLCGPADLRYFEGEFTGLPPALTPPAPHSLLTARQQAAFRDFDFVSERFLEP | – | – | – | – | −*

Source: US7713943B2, “Further use of protein kinase N beta” (Silence Therapeutics Aktiengesellschaft (AG), priority 2002, dated 2010)
